Measured values from publication PMC9410871, “Structural basis of DNA packaging by a ring-type ATPase from an archetypal viral system” (Nucleic Acids Research, 2022).

How the values were obtained:
[1] = biological target: HK97 small terminase (TerS) protein GP1 (bacteriophage HK97); assay: crystal structure; TerS 22 mg/mL in 300 mM potassium glutamate, 20 mM HEPES pH 7.0; reservoir 9% PEG 3350, 0.1 M succinic acid pH 7.0; three subunits in the asymmetric unit around a crystallographic 3-fold axis
[2] = biological target: HK97 small terminase (TerS) protein GP1 (bacteriophage HK97); assay: SEC-MALS; TerS in solution; conditions not told in the main text
[3] = biological target: HK97 small terminase (TerS) protein GP1 (bacteriophage HK97); assay: native MS; TerS buffer-exchanged into 200 mM ammonium acetate, pH 7.5; modified Q-Exactive Orbitrap, positive ion mode, static nanospray
[4] = biological target: the molecule itself; assay: cryo-EM structure; packaging reaction with 125 nM prohead, 125 nM ScaI-linearized pUC18 DNA, 1 uM TerL, 2 uM TerS, vitrified about 30 s after 1 mM ATP; 5-fold symmetry applied to resolve TerL, 6-fold to resolve the portal

HK97 small terminase (TerS) protein GP1 (natural protein), sequence (Q9MBW4 2-161): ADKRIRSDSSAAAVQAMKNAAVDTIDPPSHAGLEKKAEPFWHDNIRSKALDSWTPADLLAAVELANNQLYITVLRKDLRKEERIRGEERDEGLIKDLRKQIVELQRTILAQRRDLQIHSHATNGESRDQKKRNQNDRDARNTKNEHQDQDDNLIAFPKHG

Molecule	stoichiometry N [1]	stoichiometry N [2]	stoichiometry N [3]	stoichiometry N [4]
HK97 small terminase (TerS) protein GP1 (natural protein)	9	9	9	–
HK97 portal (portal complex of the procapsid) (natural protein, bacteriophage HK97, UniProt P49859 1-424, looked up, Portal protein of bacteriophage HK97, within the procapsid; Seen only as part of the procapsid m4; source: E. coli 594 infected with HK97 amber mutant amC2; within purified procapsids; copies: 12) MEEPKYTIDLRTNNGWWARLKSWFVGGRLVTPNQGSQTGPVSAHGYLGDSSINDERILQISTVWRCVSLISTLTACLPLDVFETDQNDNRKKVDLSNPLARLLRYSPNQYMTAQEFREAMTMQLCFYGNAYALVDRNSAGDVISLLPLQSANMDVKLVGKKVVYRYQRDSEYADFSQKEIFHLKGFGFTGLVGLSPIAFACKSAGVAVAMEDQQRDFFANGAKSPQILSTGEKVLTEQQRSQVEENFKEIAGGPVKKRLWILEAGFSTSAIGVTPQDAEMMASRKFQVSELARFFGVPPHLVGDVEKSTSWGSGIEQQNLGFLQYTLQPYISRWENSIQRWLIPSKDVGRLHAEHNLDGLLRGDSASRAAFMKAMGESGLRTINEMRRTDNMPPLPGGDVAMRQAQYVPITDLGTNKEPRNNGA	–	–	–	12
